{"source": "paper PMC6804660", "about": "“Melatonin enhances salt tolerance by promoting MYB108A-mediated ethylene biosynthesis in grapevines”", "key": {"MYB108A (VviMYB108A) [1]": {"biological_target": "T1, MYB108A (VviMYB108A) (UniProt C3W4Q3 1-306)", "T1 sequence": "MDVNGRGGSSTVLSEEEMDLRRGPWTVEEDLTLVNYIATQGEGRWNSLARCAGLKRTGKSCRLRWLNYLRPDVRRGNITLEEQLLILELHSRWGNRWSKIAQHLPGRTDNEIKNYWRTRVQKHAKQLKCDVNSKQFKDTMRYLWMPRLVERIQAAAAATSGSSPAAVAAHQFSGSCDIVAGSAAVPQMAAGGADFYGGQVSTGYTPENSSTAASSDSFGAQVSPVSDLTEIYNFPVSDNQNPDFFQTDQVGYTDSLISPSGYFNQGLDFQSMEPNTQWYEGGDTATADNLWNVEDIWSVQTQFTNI", "assay": "EMSA; EMSA per Thermo Fisher EMSA Kit manual; buffer, salt, pH and temperature not stated", "conditions": "protein: recombinant; tags: His; label: biotin"}, "MYB108A (VviMYB108A) [2]": {"biological_target": "T1, MYB108A (VviMYB108A)", "assay": "competition; increasing unlabeled competitor vs biotin MBS probe (EMSA); EMSA per Thermo Fisher EMSA Kit manual; buffer, salt, pH and temperature not stated", "conditions": "protein: recombinant; tags: His"}, "MYB108A (VviMYB108A) [3]": {"biological_target": "T1, MYB108A (VviMYB108A)", "assay": "competition; unlabeled mutant competitor vs biotin MBS probe (EMSA); EMSA per Thermo Fisher EMSA Kit manual; buffer, salt, pH and temperature not stated", "conditions": "protein: recombinant; tags: His"}}, "data": [{"binder": "ACS1 promoter MBS probe (dsDNA) DNA 1: CATGTCCCTGTGAACCTAACGTAAGGCA DNA 2: TGCCTTACGTTAGGTTCACAGGGACATG", "values": [{"measurement": "binding result", "setting": "MYB108A (VviMYB108A) [1]", "result": "binds"}]}, {"binder": "unlabeled MBS competitor (dsDNA) DNA 1: CATGTCCCTGTGAACCTAACGTAAGGCA DNA 2: TGCCTTACGTTAGGTTCACAGGGACATG", "values": [{"measurement": "binding result", "setting": "MYB108A (VviMYB108A) [2]", "result": "binds"}]}, {"binder": "mutant MBS competitor (mMBS) (dsDNA) DNA 1: CATGTCCCTGTGTACATATCGTAAGGCA DNA 2: TGCCTTACGATATGTACACAGGGACATG", "values": [{"measurement": "binding result", "setting": "MYB108A (VviMYB108A) [3]", "result": "no binding"}]}]}
